Test results taken from patent US20070077617.
Positions count from the first letter of the chain named. Numbers in names are those of the source.

B1: OmpT protease variant OmpT D97V (protein)
chain: STETLSFTPDNINADISLGTLSGKTKERVYLAEEGGRKVSQLDWKFNNAAIIKGAINWDLMPQISIGAAGWTTLGSRGGNMVDQDWMDSSNPGTWTVESRHPDTQLNYANEFDLNIKGWLLNEPNYRLGLMAGYQESRYSFTARGGSYIYSSEEGFRDDIGSFPNGERAIGYKQRFKMPYIGLTGSYRYEDFELGGTFKYSGWVESSDNDEHYDPGKRITYRSKVKDQNYYSVAVNAGYYVTPNAKVYVEGAWNRVTNKKGNTSLYDHNNNTSDYSKNGAGIENYNFITTAGLKYTF
B2: OmpT protease variant OmpT D97Y (protein)
chain: B1 chain with V97Y
B3: OmpT protease variant OmpT D97R (protein)
chain: B1 chain with V97R
B4: OmpT protease variant OmpT D97Q (protein)
chain: B1 chain with V97Q
B5: OmpT protease variant OmpT D97P (protein)
chain: B1 chain with V97P
B6: OmpT protease variant OmpT D97T (protein)
chain: B1 chain with V97T
B7: OmpT protease variant OmpT D97I (protein)
chain: B1 chain with V97I
B8: OmpT protease variant OmpT D97C (protein)
chain: B1 chain with V97C
B9: OmpT protease variant OmpT D97H (protein)
chain: B1 chain with V97H
B10: OmpT protease variant OmpT D97L (protein)
chain: B1 chain with V97L
B11: OmpT protease variant OmpT D97S (protein)
chain: B1 chain with V97S
B12: OmpT protease variant OmpT D97E (protein)
chain: B1 chain with V97E
B13: OmpT protease variant OmpT D97W (protein)
chain: B1 chain with V97W
B14: OmpT protease variant OmpT D97M (protein)
chain: B1 chain with V97M
B15: OmpT protease variant OmpT D97N (protein)
chain: B1 chain with V97N
B16: OmpT protease variant OmpT D97G (protein)
chain: B1 chain with V97G
B17: OmpT protease variant OmpT D97K (protein)
chain: B1 chain with V97K
B18: OmpT protease variant OmpT D97A (protein)
chain: B1 chain with V97A
B19: OmpT protease variant OmpT D97F (protein)
chain: B1 chain with V97F

These proteins were tested against fusion protein PRV.
Chain of fusion protein PRV (chain, as listed by the source): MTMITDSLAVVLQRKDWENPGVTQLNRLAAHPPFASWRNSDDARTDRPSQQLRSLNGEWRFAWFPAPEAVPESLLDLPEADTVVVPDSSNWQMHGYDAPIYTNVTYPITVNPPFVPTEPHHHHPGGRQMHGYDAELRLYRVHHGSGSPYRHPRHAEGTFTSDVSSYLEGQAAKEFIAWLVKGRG
In the case of B1, the relative cleavage efficiency is reported as “less than 3.0%”.
With B2 the relative cleavage efficiency was “less than 3.0%”.
B3 was tested, and the relative cleavage efficiency was “less than 3.0%”.
Protein B4 has a relative cleavage efficiency of less than 3%.
In the case of B5, the relative cleavage efficiency is reported as “less than 3.0%”.
With B6 the relative cleavage efficiency was less than 3%.
For B7, the relative cleavage efficiency was “less than 3.0%”.
Protein B8 has a relative cleavage efficiency of 3.2%.
Protein B9 has a relative cleavage efficiency of 7.8%.
In the case of B10, the relative cleavage efficiency is reported as less than 3%.
In the case of B11, the relative cleavage efficiency is reported as less than 3%.
Protein B12 has a relative cleavage efficiency of 5%.
With B13 the relative cleavage efficiency was “less than 3.0%”.
B14 was tested, and the relative cleavage efficiency was 3%.
With B15 the relative cleavage efficiency was less than 3%.
With B16 the relative cleavage efficiency was “less than 3.0%”.
B17 was tested, and the relative cleavage efficiency was “less than 3.0%”.
B18 was tested, and the relative cleavage efficiency was less than 3%.
In the case of B19, the relative cleavage efficiency is reported as less than 3%.
